Reference: patent US20240118272A1

Assays:
[1] = molecular target: CD63(ECD)-ALP conjugate (human; bovine); experiment: HI-1000 capture immunoassay; calibrator C5, 1563 ng/mL; run 2
[2] = molecular target: CD63(ECD)-ALP conjugate (human; bovine); experiment: HI-1000 capture immunoassay; calibrator C2, 5.71 mU/L; mean of 3
[3] = molecular target: CD63(ECD)-ALP conjugate (human; bovine); experiment: HI-1000 capture immunoassay; calibrator C3, 62.5 ng/mL; run 3
[4] = molecular target: CD63(ECD)-ALP conjugate (human; bovine); experiment: HI-1000 capture immunoassay; calibrator C3, 62.5 ng/mL; mean of 3
[5] = molecular target: CD63(ECD)-ALP conjugate (human; bovine); experiment: HI-1000 capture immunoassay; calibrator C1, 1.43 mU/L; run 1
[6] = molecular target: CD63(ECD)-ALP conjugate (human; bovine); experiment: HI-1000 capture immunoassay; calibrator C3, 22.84 mU/L; mean of 3
[7] = molecular target: CD63(ECD)-ALP conjugate (human; bovine); experiment: HI-1000 capture immunoassay; calibrator C3, 22.84 mU/L; run 3
[8] = molecular target: CD63(ECD)-ALP conjugate (human; bovine); experiment: HI-1000 capture immunoassay; calibrator C2, 5.71 mU/L; run 1
[9] = molecular target: CD63(ECD)-ALP conjugate (human; bovine); experiment: HI-1000 capture immunoassay; calibrator C4, 313 ng/mL; run 1
[10] = molecular target: CD63(ECD)-ALP conjugate (human; bovine); experiment: HI-1000 capture immunoassay; calibrator C3, 62.5 ng/mL; run 1
[11] = molecular target: CD63(ECD)-ALP conjugate (human; bovine); experiment: HI-1000 capture immunoassay; calibrator C1, 2.5 ng/mL; run 1
[12] = molecular target: CD63(ECD)-ALP conjugate (human; bovine); experiment: HI-1000 capture immunoassay; calibrator C3, 22.84 mU/L; run 2
[13] = molecular target: CD63(ECD)-ALP conjugate (human; bovine); experiment: HI-1000 capture immunoassay; calibrator C1, 1.43 mU/L; run 3
[14] = molecular target: CD63(ECD)-ALP conjugate (human; bovine); experiment: HI-1000 capture immunoassay; calibrator C5, 365.43 mU/L; run 1
[15] = molecular target: CD63(ECD)-ALP conjugate (human; bovine); experiment: HI-1000 capture immunoassay; calibrator C2, 5.71 mU/L; run 3
[16] = molecular target: CD63(ECD)-ALP conjugate (human; bovine); experiment: HI-1000 capture immunoassay; calibrator C1, 1.43 mU/L; mean of 3
[17] = molecular target: CD63(ECD)-ALP conjugate (human; bovine); experiment: HI-1000 capture immunoassay; calibrator C4, 91.36 mU/L; mean of 3
[18] = molecular target: CD63(ECD)-ALP conjugate (human; bovine); experiment: HI-1000 capture immunoassay; calibrator C3, 62.5 ng/mL; run 2
[19] = molecular target: CD63(ECD)-ALP conjugate (human; bovine); experiment: HI-1000 capture immunoassay; calibrator C2, 12.5 ng/mL; mean of 3
[20] = molecular target: CD63(ECD)-ALP conjugate (human; bovine); experiment: HI-1000 capture immunoassay; calibrator C4, 313 ng/mL; mean of 3
[21] = molecular target: CD63(ECD)-ALP conjugate (human; bovine); experiment: HI-1000 capture immunoassay; calibrator C5, 1563 ng/mL; run 3
[22] = molecular target: CD63(ECD)-ALP conjugate (human; bovine); experiment: HI-1000 capture immunoassay; calibrator C5, 1563 ng/mL; mean of 3
[23] = molecular target: CD63(ECD)-ALP conjugate (human; bovine); experiment: HI-1000 capture immunoassay; calibrator C4, 91.36 mU/L; run 3
[24] = molecular target: CD63(ECD)-ALP conjugate (human; bovine); experiment: HI-1000 capture immunoassay; calibrator C1, 1.43 mU/L; run 2
[25] = molecular target: CD63(ECD)-ALP conjugate (human; bovine); experiment: HI-1000 capture immunoassay; calibrator C4, 91.36 mU/L; run 1
[26] = molecular target: CD63(ECD)-ALP conjugate (human; bovine); experiment: HI-1000 capture immunoassay; calibrator C2, 12.5 ng/mL; run 2
[27] = molecular target: CD63(ECD)-ALP conjugate (human; bovine); experiment: HI-1000 capture immunoassay; calibrator C1, 2.5 ng/mL; mean of 3
[28] = molecular target: CD63(ECD)-ALP conjugate (human; bovine); experiment: HI-1000 capture immunoassay; calibrator C1, 2.5 ng/mL; run 3
[29] = molecular target: CD63(ECD)-ALP conjugate (human; bovine); experiment: HI-1000 capture immunoassay; calibrator C4, 313 ng/mL; run 2
[30] = molecular target: CD63(ECD)-ALP conjugate (human; bovine); experiment: HI-1000 capture immunoassay; calibrator C5, 365.43 mU/L; run 3
[31] = molecular target: CD63(ECD)-ALP conjugate (human; bovine); experiment: HI-1000 capture immunoassay; calibrator C4, 91.36 mU/L; run 2
[32] = molecular target: CD63(ECD)-ALP conjugate (human; bovine); experiment: HI-1000 capture immunoassay; calibrator C3, 22.84 mU/L; run 1
[33] = molecular target: CD63(ECD)-ALP conjugate (human; bovine); experiment: HI-1000 capture immunoassay; calibrator C1, 2.5 ng/mL; run 2
[34] = molecular target: CD63(ECD)-ALP conjugate (human; bovine); experiment: HI-1000 capture immunoassay; calibrator C2, 5.71 mU/L; run 2
[35] = molecular target: CD63(ECD)-ALP conjugate (human; bovine); experiment: HI-1000 capture immunoassay; calibrator C5, 365.43 mU/L; run 2
[36] = molecular target: CD63(ECD)-ALP conjugate (human; bovine); experiment: HI-1000 capture immunoassay; calibrator C5, 1563 ng/mL; run 1
[37] = molecular target: CD63(ECD)-ALP conjugate (human; bovine); experiment: HI-1000 capture immunoassay; calibrator C5, 365.43 mU/L; mean of 3
[38] = molecular target: CD63(ECD)-ALP conjugate (human; bovine); experiment: HI-1000 capture immunoassay; calibrator C4, 313 ng/mL; run 3
[39] = molecular target: CD63(ECD)-ALP conjugate (human; bovine); experiment: HI-1000 capture immunoassay; calibrator C2, 12.5 ng/mL; run 3
[40] = molecular target: CD63(ECD)-ALP conjugate (human; bovine); experiment: HI-1000 capture immunoassay; calibrator C2, 12.5 ng/mL; run 1

Chain of CD63(ECD)-ALP conjugate (human; bovine) (chain, as listed by the source, chain 1 of 2): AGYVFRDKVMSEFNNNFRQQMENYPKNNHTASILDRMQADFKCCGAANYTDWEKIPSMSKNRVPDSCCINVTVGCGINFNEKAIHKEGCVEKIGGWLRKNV
Chain of CD63(ECD)-ALP conjugate (human; bovine) (P19111 20-506, chain 2 of 2): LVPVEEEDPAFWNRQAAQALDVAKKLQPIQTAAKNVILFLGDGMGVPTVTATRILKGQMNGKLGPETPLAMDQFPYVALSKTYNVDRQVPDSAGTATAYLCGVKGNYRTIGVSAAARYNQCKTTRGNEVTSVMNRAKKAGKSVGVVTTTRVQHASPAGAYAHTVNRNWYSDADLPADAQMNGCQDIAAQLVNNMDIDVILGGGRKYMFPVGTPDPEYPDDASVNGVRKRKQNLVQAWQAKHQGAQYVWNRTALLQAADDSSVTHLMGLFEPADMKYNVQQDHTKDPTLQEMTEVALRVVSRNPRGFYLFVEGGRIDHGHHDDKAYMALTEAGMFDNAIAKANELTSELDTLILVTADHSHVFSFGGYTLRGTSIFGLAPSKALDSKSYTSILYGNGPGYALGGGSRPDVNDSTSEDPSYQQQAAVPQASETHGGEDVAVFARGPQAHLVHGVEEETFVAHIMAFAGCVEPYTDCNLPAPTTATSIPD

anti-CD63 antibody (Clone: H5C6)
Count [1]: 205000 count
Count value (av) [2]: 2290 count
Count [3]: 8490 count
Count (av) [4]: 8810 count
Count value [5]: 900 count
Count value (av) [6]: 9160 count
Count value [7]: 9080 count
Count value [8]: 2260 count
Count [9]: 41700 count
Count [10]: 8690 count
Count [11]: 770 count
Count value [12]: 9240 count
Count value [13]: 916 count
Count value [14]: 206000 count
Count value [15]: 2240 count
Count value (av) [16]: 896 count
Count value (av) [17]: 42600 count
Count [18]: 9250 count
Count (av) [19]: 2180 count
Count (av) [20]: 41900 count
Count [21]: 213000 count
Count (av) [22]: 212000 count
Count value [23]: 42700 count
Count value [24]: 871 count
Count value [25]: 43000 count
Count [26]: 2120 count
Count (av) [27]: 755 count
Count [28]: 743 count
Count [29]: 41300 count
Count value [30]: 207000 count
Count value [31]: 42200 count
Count value [32]: 9140 count
Count [33]: 751 count
Count value [34]: 2380 count
Count value [35]: 212000 count
Count [36]: 218000 count
Count value (av) [37]: 208000 count
Count [38]: 42800 count
Count [39]: 2260 count
Count [40]: 2160 count
